Measurements from PMC8062489, “Tgf-β1 transcriptionally promotes 90K expression: possible implications for cancer progression”.

B1: Oligo I (dsDNA)
DNA 1: GCAGCCTCCGTCATGTGTTTTCTGGA
DNA 2: TCCAGAAAACACATGACGGAGGCTGC
B2: EWT (E, consensus E-box) (dsDNA)
DNA 1: GGAAGCAGACCACGTGGTCTGCTT
DNA 2: AAGCAGACCACGTGGTCTGCTTCC

Target: rUSF1 (recombinant His-USF1) (UniProt P22415 1-310)
Experiment: EMSA; 20 mM HEPES (pH not stated), 0.1% NP40, 5 mM MgCl2, 50 mM KCl, 2% glycerol, 2 mM DTT, 50 ng/ml poly(dI-dC), room temperature, 20 ul, 5 ug nuclear extract; 5% native PAGE in 1x TBE
Details: protein: recombinant; tags: N-terminal His-tag; chain copies: 2; label: 5'-32P as probe; blunt

Chain of rUSF1 (recombinant His-USF1) (P22415 whole entry): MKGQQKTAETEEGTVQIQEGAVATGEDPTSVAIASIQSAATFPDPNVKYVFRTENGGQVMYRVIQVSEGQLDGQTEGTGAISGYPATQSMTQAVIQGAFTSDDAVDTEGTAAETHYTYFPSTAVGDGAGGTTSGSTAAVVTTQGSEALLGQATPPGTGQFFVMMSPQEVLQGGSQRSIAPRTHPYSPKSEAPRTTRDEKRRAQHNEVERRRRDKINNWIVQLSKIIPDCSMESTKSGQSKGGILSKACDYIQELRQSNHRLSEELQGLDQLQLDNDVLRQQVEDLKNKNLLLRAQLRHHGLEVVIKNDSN

Binder	binding result
B1	binds
B2	binds
